{
  "source": "paper doi:10.1101/324400",
  "about": "(bioRxiv, 2018)",
  "binders": {"B1": {"name": "wild-type Eco RfaH, full length (natural protein)", "chain": "MQSWYLLYCKRGQLQRAQEHLERQAVNCLAPMITLEKIVRGKRTAVSEPLFPNYLFVEFDPEVIHTTTINATRGVSHFVRFGASPAIVPSAVIHQLSVYKPKDIVDPATPYPGDKVIITEGAFEGFQAIFTEPDGEARSMLLLNLINKEIKHSVKNTEFRKL"}},
  "key": {"[1]": {"target": "Eco RNAP β subunit (in the opsEC) (E. coli, UniProt P0A8V2)", "sequence (P0A8V2 whole entry)": "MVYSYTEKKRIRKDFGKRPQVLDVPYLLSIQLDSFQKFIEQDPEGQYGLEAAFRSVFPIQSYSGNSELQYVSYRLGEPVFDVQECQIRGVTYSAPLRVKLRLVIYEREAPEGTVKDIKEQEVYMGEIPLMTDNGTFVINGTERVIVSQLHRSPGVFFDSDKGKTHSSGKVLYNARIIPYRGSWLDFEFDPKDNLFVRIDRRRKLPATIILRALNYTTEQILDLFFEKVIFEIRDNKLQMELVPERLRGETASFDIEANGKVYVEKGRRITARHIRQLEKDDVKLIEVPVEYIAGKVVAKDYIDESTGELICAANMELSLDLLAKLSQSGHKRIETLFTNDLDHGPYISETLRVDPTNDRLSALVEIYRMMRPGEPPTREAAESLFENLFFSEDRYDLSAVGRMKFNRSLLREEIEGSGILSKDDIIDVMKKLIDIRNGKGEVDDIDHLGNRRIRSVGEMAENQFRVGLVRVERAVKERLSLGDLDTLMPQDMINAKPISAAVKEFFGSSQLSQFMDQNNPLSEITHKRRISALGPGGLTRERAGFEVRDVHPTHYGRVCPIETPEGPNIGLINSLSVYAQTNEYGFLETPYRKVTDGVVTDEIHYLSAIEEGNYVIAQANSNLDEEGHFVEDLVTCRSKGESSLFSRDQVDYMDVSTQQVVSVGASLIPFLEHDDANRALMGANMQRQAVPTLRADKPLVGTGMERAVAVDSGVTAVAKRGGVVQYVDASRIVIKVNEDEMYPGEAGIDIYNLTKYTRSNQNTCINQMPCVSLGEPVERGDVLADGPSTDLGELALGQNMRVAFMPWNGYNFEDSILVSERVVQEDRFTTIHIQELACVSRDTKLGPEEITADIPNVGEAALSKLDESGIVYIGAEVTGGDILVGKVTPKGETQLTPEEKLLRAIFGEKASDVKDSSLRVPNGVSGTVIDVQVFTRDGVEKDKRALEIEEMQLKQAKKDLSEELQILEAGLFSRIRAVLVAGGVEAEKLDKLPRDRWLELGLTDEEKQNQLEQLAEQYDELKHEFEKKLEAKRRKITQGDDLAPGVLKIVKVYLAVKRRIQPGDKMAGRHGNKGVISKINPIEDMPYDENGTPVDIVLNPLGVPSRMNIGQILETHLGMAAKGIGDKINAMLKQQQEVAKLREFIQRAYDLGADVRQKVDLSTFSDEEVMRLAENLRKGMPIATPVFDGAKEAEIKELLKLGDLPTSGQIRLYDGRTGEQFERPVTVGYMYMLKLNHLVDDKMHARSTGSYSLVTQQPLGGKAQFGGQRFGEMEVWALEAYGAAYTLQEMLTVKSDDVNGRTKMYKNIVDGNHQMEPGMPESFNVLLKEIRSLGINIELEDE", "assay": "cryo-EM structure"}, "[2]": {"target": "Eco RNAP β' subunit (in the opsEC) (E. coli, UniProt P0A8T7)", "sequence (P0A8T7 whole entry)": "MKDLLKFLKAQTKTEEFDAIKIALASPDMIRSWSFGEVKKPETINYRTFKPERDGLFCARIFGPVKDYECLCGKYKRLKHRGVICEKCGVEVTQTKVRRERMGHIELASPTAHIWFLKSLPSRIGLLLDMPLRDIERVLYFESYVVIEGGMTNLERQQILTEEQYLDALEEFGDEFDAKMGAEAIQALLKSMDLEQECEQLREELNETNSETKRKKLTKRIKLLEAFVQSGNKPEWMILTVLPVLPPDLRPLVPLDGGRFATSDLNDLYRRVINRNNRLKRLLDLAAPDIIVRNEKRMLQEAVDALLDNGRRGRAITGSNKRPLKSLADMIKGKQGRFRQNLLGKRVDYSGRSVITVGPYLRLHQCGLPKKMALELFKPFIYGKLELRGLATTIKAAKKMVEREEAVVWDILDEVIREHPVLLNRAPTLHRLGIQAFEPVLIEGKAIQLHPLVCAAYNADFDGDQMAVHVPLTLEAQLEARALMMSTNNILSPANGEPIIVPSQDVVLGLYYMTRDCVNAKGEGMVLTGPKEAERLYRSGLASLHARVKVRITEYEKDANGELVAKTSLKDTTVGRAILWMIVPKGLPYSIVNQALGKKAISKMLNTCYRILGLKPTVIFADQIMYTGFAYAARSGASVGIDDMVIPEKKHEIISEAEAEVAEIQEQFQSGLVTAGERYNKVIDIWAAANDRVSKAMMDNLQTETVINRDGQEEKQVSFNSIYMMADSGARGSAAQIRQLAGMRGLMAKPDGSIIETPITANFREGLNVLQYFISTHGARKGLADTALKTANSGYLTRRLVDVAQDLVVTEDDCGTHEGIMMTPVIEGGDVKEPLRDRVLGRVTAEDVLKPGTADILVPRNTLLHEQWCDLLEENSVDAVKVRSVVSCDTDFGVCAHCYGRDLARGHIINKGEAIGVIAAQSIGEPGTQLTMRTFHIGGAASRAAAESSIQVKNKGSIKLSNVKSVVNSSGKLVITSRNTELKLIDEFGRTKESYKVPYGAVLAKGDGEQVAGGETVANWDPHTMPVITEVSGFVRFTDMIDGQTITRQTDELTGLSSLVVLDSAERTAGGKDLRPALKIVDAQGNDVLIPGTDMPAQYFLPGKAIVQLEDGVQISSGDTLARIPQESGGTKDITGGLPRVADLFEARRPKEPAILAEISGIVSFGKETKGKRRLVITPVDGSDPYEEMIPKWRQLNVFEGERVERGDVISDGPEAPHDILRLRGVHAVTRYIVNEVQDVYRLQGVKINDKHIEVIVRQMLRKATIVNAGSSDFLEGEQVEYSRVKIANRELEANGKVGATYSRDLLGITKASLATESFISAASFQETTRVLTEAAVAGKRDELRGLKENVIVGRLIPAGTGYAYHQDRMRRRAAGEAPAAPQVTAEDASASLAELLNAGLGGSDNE", "assay": "cryo-EM structure"}},
  "data": [
    {"binder": "B1", "values": [
      {"measurement": "binding result", "setting": "[1]", "result": "binds"},
      {"measurement": "binding result", "setting": "[2]", "result": "binds"}
    ]}
  ]
}
